The target in assay [1] is T1, sEGFR (recombinant extracellular domain, amino acids 1-621, of the wild-type EGFR) (Homo sapiens, UniProt P00533).
T1 construct: sEGFR is the recombinant extracellular domain (amino acids 1-621) of the wild-type EGFR; host or cells: CHO cells
Nature of the assay: ELISA on sEGFR coated plates. In kind it is binding. How it is done: Two types of ELISA were used to determine the specificity of the antibodies. […] Growth Factors. 18, 11-29). Antibodies were added to wells in triplicate at increasing concentration in 2% HSA in phosphate-buffered saline (PBS).
(An ELISA detects its analyte on a solid surface through an enzyme-linked reagent.)

The target of assay [2] is T2, EGFR extracted from DU145 cells (Homo sapiens, UniProt P00533).
T2 construct: endogenous in cells; host or cells: DU145
Nature of the assay: immunoprecipitation and immunoblot. Format: binding. How it is done: Cells were lysed with lysis buffer (1% Triton X-IOO, 30 mM HEPES, 150 mM NaCl, […] 4-(2-aminoethyl) benzenesulfonylfluoride, 150 nM aprotinin, 1 mM E-64 protease inhibitor, 0.5 mM EDTA, and 1 mM leupeptin, pH 7.4) for 20 minutes, clarified by centrifugation at 14,000×g for 30 minutes, immunoprecipitated with the relevant antibodies at a final concentration of 5 μg/ml for 60 minutes and captured by Sepharose-A beads overnight. Samples were then eluted with 2× NuPAGE® SDS Sample Buffer (Invitrogen), resolved on NuPAGE® gels (either 3-8% or 4-12%), electro-transferred onto Immobilon®-P transfer membrane (Millipore) then probed with the relevant antibodies before detection by chemoluminescence radiography.
Clearly, mAb806 and mAb175 can recognize only a small proportion of the EGFR on cells in the presence of an autocrine stimulation loop.

Another assay concerns A431 xenografts. Nature of the assay: established xenograft model. In kind it is in vivo, nude mice. Conditions: day 13; 1 mg injection. As for the experimental part:
(§1) Tumor cells (3×10^6) in […] of PBS were inoculated subcutaneously into both flanks of 4-6 week old female nude mice (Animal Research Centre, Western Australia, Australia). […] Treatment was continued for a total of 6 doses, 3 times per week for 2 weeks. In the established model, treatment was started when tumors had reached a mean volume of 65±6.42 mm^3 (U87MG.Δ2-7), 84±9.07 mm^3 (U87MG), 73±7.5 mm^3 (U87MG.wtEGFR) or 201±19.09 mm^3 (A431 tumors). Tumor volume in mm^3 was determined using the formula (length×width^2)/2, where length was the longest axis and width the measurement at right angles to the length (Clark et al. (2000) Therapeutic efficacy of anti-Lewis (y) humanized 3S 193 radioimmunotherapy in a breast cancer model: enhanced activity when combined with Taxol chemotherapy. Clin. Cancer Res. 6, 3621-3628). Data was expressed as mean tumor volume±S.E. for each treatment group. Statistical analysis was performed at given time points using Student's t-test. Animals were euthanized when the xenografts reached an approximate volume of 1.5 cm^3 and the tumors excised for histological examination. This research project was approved by the Animal Ethics Committee of the Austin and Repatriation Medical Centre.
At day 13, when control animals were sacrificed, the mean tumor volume was 1142±120.06 mm^3 for the control group and 451±65.58 mm^3 for the 1 mg injection group (p<0.0001).

In a further assay the test system is U87MG xenografts. Nature of the assay: preventative xenograft model. In kind it is in vivo, nude mice. The conditions noted are these: 1 mg per injection i.p., 3 times per week for 2 weeks. How it is done:
as §1

Another assay has as its system parental U87MG cells. Nature of the assay: binding of iodinated antibody to cells. Set-up: species or system human.
For assay [3], the target named is T3, Peptide C: LEEKKGNYVVTDH(K-Biot)-OH (Homo sapiens, UniProt P00533, DELINS30-297G).
T3 construct: purchased Biosource, Camarillo, CA; host or cells: synthetic
Nature of the assay: BIAcore, immobilized Peptide C. In kind it is binding. Conditions: mAbL8A4 even at 6.25 nM; mAb806 up to 100 nM (highest tested). As for the experimental part: Peptide C was immobilized on a Streptavidin microsensor chip at a surface density of 350RU (+/−30RU). Serial dilutions of mAbs were tested for reactivity with the peptide. Blocking experiments using non-biotinylated peptide were performed to assess specificity.
A general note: SPR reads the build-up and loss of mass on a sensor chip optically.

Assay [4] has as its system U87MG expressing wild-type EGFR. Nature of the assay: protein A mixed hemadsorption. Conditions: undiluted supernatant less than 10%. In kind it is cell-based, human. How it is done:
As expected, the 528 antibody stained both the U87MG.Δ2-7 and U87MG.wtEGFR cell lines (FIG. 1). As expected, the 528 antibody stained U87MG.Δ2-7 with a higher intensity than the parental cell as it binds both the de2-7 and wild-type receptors that are co-expressed in these cells (FIG. 1). Similar results were obtained using a protein A mixed hemadsorption which detects surface bound IgG by appearance of […] (group O) to target cells.

The next assay has as its system xenograft A431. Nature of the assay: immunohistochemistry of xenograft sections. Also on record: species or system human. How it is done:
(§2) Xenografts were excised and bisected. One half was fixed in 10% formalin/PBS before being embedded in paraffin. Four micron sections were then cut and stained with haematoxylin and eosin (H&E) for routine histological examination. The other half was embedded in Tissue Tek® OCT compound (Sakura Finetek, Torrance, CA), frozen in liquid nitrogen and stored at −80° C. Thin (5 micron) cryostat sections were cut and fixed in ice-cold acetone for 10 min followed by air drying for a further 10 min. Sections were blocked in protein blocking reagent (Lipshaw Immunon, Pittsburgh U.S.A.) for 10 min and then incubated with biotinylated primary antibody (1 mg/ml), for 30 min at room temperature (RT). All antibodies were biotinylated using the ECL™ protein biotinylation module (Amersham, Baulkham Hills, Australia), as per the manufacturer's instructions. After rinsing with PBS, sections were incubated with a streptavidin horseradish peroxidase complex for a further 30 min (Silenus, Melbourne, Australia). Following a final PBS wash the sections were exposed to 3-amino-9-ethylcarbozole (AEC) substrate (0.1 M acetic acid, 0.1 M sodium acetate, 0.02 M AEC (Sigma Chemical Co., St Louis, MO)) in the presence of hydrogen peroxide for 30 min. Sections were rinsed with water and counterstained with hematoxylin for 5 min and mounted.
(§3) Bound antibody was detected using the Dako Envision™+HRP detection system as per manufacturer's instructions. Sections were finally rinsed with water, counterstained with hematoxylin and mounted.

In a further assay the test system is xenograft U87MG (native). Nature of the assay: immunohistochemistry of xenograft sections. Also on record: species or system human. How it is done: as §2, §3
Another assay addresses T4, wtEGFR (Homo sapiens, UniProt P00533).
T4 construct: host or cells: cell lysates
Nature of the assay: immunoblotting of cell lysates. In kind it is binding. For orientation: A western blot detects proteins with antibodies after separation by electrophoresis.

A further assay relates to U87MG.wtEGFR xenografts. Nature of the assay: established xenograft model. Format: in vivo, nude mice. Conditions: day control animals were sacrificed; 1 mg injections. How it is done:
as §1, with “Centre. […]” for “Centre.”

One molecule from US20240117073A1, “METHODS OF TREATING NEOPLASTIC ASTROCYTOMA” (Ludwig Institute for Cancer Research Ltd., priority 2009, published 2024) can be followed below.

“And” between values parts separate entries of the source, which are not always exact repeats. Equal values may be shown once. “Also recorded” adds a separate entry of the source.

B1: mAb806: murine monoclonal antibody recognizing de2-7 EGFR and amplified EGFR; VH SEQ ID NO:2, VL SEQ ID NO:4 (antibody, listed as Mus musculus, V domains shown)
VH: MRVLILLWLFTAFPGVLSDVQLQESGPSLVKPSQSLSLTCTVTGYSITSDFAWNWIRQFPGNKLEWMGYISYSGNTRYNPSLKSRISITRDTSKNQFFLQLNSVTIEDTATYYCVTAGRGFPYWGQGTLVTVSA
VL: MVSTAQFLAFLLLWFPGARCDILMTQSPSSMSVSLGDTVSITCHSSQDINSNIGWLQQRPGKSFKGLIYHGTNLDDEVPSRFSGSGSGADYSLTISSLESEDFADYYCVQYAQFPWTFGGGTKLEIKR
Regarding B1, the “inhibition of antibody binding to immobilized sEGFR by sEGFR in solution” value in assay [1] is “unable to inhibit”. Also, in [1] (DH8.3 up to 10 μg/ml), the “binding to immobilized wild-type sEGFR” value is “dose-dependent and saturating binding curves”. Besides, the “inhibition of antibody binding to immobilized sEGFR by denatured sEGFR in solution” value in [1] (sEGFR heated 10 min at 95° C.) was “able to inhibit”. In addition, the “immunoprecipitation of EGFR” value in assay [2] is reported as “immunoprecipitate a small proportion of the EGFR”. Besides, the mean tumor volume with A431 xenografts was 451±65.58 mm^3 and 450±70 mm^3; in the assay with U87MG.wtEGFR xenografts, 468±78.38 mm^3 and 500±80 mm^3. For the same molecule, the “effect on xenograft growth” value in the assay on U87MG xenografts was “no effect”. Moreover, in the assay on parental U87MG cells, the “binding of iodinated antibody” value is “Neither ^125I-radiolabeled mAb806 or the DH8.3 antibody bound; also recorded: did not bind”. Also, in assay [3], the “reactivity with Peptide C” value is “did not show detectable specific reactivity”. Moreover, in assay [4], the reactivity result was “no significant reactivity”. The immunohistochemical staining entry in the assay with xenograft A431 is on record as “pos. (predominantly”; in the assay with xenograft U87MG (native), “undetectable”. The reactivity after immunoblotting result with wtEGFR is “bound to the wtEGFR”.
